Assay results from US20240043505A1 (UNIVERSITY OF PITTSBURGH OF THE COMMONWEALTH SYSTEM OF …, published 2024).
Like-named read-outs stand apart in the source and are kept apart here.

How the values were obtained:
[1] = molecular target: T1, SARS-CoV-2 spike receptor-binding domain (RBD) (SARS-CoV-2, UniProt P0DTC2 319-541); test: indirect ELISA on coated RBD ('ELISA affinity')
[2] = molecular target: T1, SARS-CoV-2 spike receptor-binding …
[3] = molecular target: T2, SARS-CoV-2 RBD E484K mutant (SARS-CoV-2, UniProt P0DTC2 334-527)
N501Y [4] = molecular target: N501Y
[5] = molecular target: T1, SARS-CoV-2 spike receptor-binding …; remark: listed apart in the source
[6] = molecular target: T1, SARS-CoV-2 spike receptor-binding …; test: SPR (Biacore 3000), RBD immobilised
[7] = molecular target: T1, SARS-CoV-2 spike receptor-binding …; remark: listed apart in the source
[8] = molecular target: T2, SARS-CoV-2 RBD E484K mutant; test: ELISA
[9] = molecular target: T1, SARS-CoV-2 spike receptor-binding …; test: ELISA
[10] = molecular target: T1, SARS-CoV-2 spike receptor-binding …; remark: listed apart in the source
N501Y [11] = molecular target: N501Y; remark: listed apart in the source
[12] = molecular target: T1, SARS-CoV-2 spike receptor-binding …; remark: listed apart in the source

B1: Nb82 (VHH)
VHH: DVQLVESGGGLVQAGGSLGLSCAASGSIFRLTAMGWYRQAPGKQRDLVTTITSAGIPHYADSVKGRFTISRDNAKNTVYLQMNGLKPEDTAVYYCYANTLNSQLLPRAYWGQGTQVTVSS
With B1 as the binder, how does the IC50 [1] read?
Its IC50 is 0.86 nM.

B2: Nb102 (VHH)
VHH: QVQLVESGGGLVQAGGSLRLSCAASGRTFSNSHMGWFRQAPGKEREFVAVISRSGGSTLYADSVKGRFTISRDNAKNTVYLQMNSLKPEDTAVYYCAASRTAGLTSNRSLYDYWGRGTQVTVSS
B2 was tested. Which IC50 [1] did it give?
Its IC50 is 28.4 nM.

B3: Nb9 (VHH)
VHH: HVQLVESGGGLVQTGGSLRLSCAFSGYTFSTFPTAWFRQAPGKEREFVAGIRWNGGSRDYTEYADFVKGRFTISRDNAKNMIYLQMISLKPEDTALYYCAASHGVVDGTSVNGYRYWGQGTQVTVSS
For B3, which IC50 [1] is on record?
Its IC50 is 0.89 nM.

B4: Nb93 (VHH)
VHH: EVQLVESGGGLVQPGGSLRLSCAASGFTFSSYAMSWVRQAPGKGREWVAGITPGSGTFYADSVKGRFTISRDNAKNTLSLEINSLKPEDTALYYCAKCRQEFSWDFSSRDPDDFDYWGQGTQVTVSS
For B4, which IC50 [1] is on record?
Its IC50 is 1.15 nM.

B5: Nb95 (VHH)
VHH: QVQLVESGGGLVQAGGSLRLSCAASGRTFSSYSMGWFRQAQGKEREFVATINGNGRDTYYTNSVKGRFTISRDDATNTVYLQMNSLKPEDTAIYYCAADKDVYYGYTSFPNEYEYWGQGTQVTVSS
Which IC50 [1] does the source give for B5 here?
Its IC50 is 2.28 nM.

What about the “EC50 (read off the curve)” value [2] of the same binder?
Its value is ~6 nM.

What about the “binding affinity fold change relative to RBD WT” value (N439K) of the same binder?
Its value is -2.19 fold.

What about the “binding affinity fold change relative to RBD WT” value (Y453F) of the same binder?
The value was -1.31 fold.

What about the “binding affinity fold change relative to RBD WT” value (K417N) of the same binder?
The value was 1.11 fold.

And the “binding affinity fold change relative to RBD WT” value [3]?
The value was 1.15 fold.

And the “binding affinity fold change relative to RBD WT” value (A475V)?
The value was 1.21 fold.

And the “binding affinity fold change relative to RBD WT” value (N501Y [4])?
The value was 1.37 fold.

What about the IC50 [5] of the same binder?
Its IC50 is 6.05 nM.

B6: Nb83 (VHH)
VHH: HVQLVESGGGLVQPGGSLRLSCAASGRSFNSYLMGWFRQAPGKEREFVAWISGSPHDIIRYRDSVKDRFTISRDNAKNTVYLQMNSLKPVDTAVYYCAVGSLRVGSFSPDYWGQGTQVTVSS
With B6 as the binder, how does the IC50 [1] read?
The IC50 was 1.51 nM.

B7: Nb99 (VHH)
VHH: QVQLVESGGGLVQTGGSLRLSCAASGSTRSIWYSGWYRQAPGKQRELVASLTSGGTTYYPDSMKGRFTISGSSGLNMVYLQMNSLRPEDTAVYSCNVRTGSGVYWGQGTQVTVSS
With B7 as the binder, how does the IC50 [1] read?
Its IC50 is 0.35 nM.

B8: Nb10 (VHH)
VHH: DVQLVESGGGLVQAGGSLKLSCTASESTFNFNHIDWYRQAPGKQRESVAVITNTDVTNYADSVKGRFTISRDNAKNTVYLQMNSLKPEDTAVYLCNAWRFGPTGVKVDYWGQGTQVTVSS
B8 was tested. Which IC50 [1] did it give?
The IC50 was 0.24 nM.

B9: Nb89 (VHH)
VHH: HVQLVESGGGLVQAGGSLRLSCAASGGTFTTFRMAWFRQTPGKEREFVAASSWGFVNYADPVKGRFTISRDNAKNTVYLEMSSLKTEDTAVYYCAARNPGTGQYDYWGQGTQVTVSS
Which results are given for B9?
IC50 [1]: 1.09 nM; Kd [6]: 0.108 nM; koff [6]: 0.000624 s⁻¹; kon [6]: 5.78e+06 M⁻¹ s⁻¹

B10: Nb96 (VHH)
VHH: HVQLVESGGGLVQAGDSLRLSCAASGRDFSSYAMGWFRQAPGKEREFVGVISSGDVGTFYEDSVKGRFTISRDDAKNTVDLQMNSLKPEDTAVYYCAAALYVTSTRGSYAYWGQGTQVTVSS
With B10 as the binder, how does the IC50 [1] read?
Its IC50 is 0.04 nM.

B11: Nb105 (VHH)
VHH: HVQLVESGGGLVQAGGSLRLSCAVSGRTFSTYGMAWFRQAPGKERDFVATITRSGETTLYADSVKGRFTISRDNAKNTVYLQMNSLKIEDTAVYYCAVRRDSSWGYSRDLFEYDYWGQGTQVTVSS
With B11 as the binder, how does the “EC50 (read off the curve)” value [7] read?
Its value is ~2 nM.

What about the IC50 [1] of the same binder?
The IC50 was 0.26 nM.

What about the “binding affinity fold change relative to RBD WT” value (N439K) of the same binder?
The value was 1.06 fold.

What about the “binding affinity fold change relative to RBD WT” value (Y453F) of the same binder?
Its value is 1.31 fold.

And the “binding affinity fold change relative to RBD WT” value (K417N)?
Its value is -1.45 fold.

And the “binding affinity fold change relative to RBD WT” value [3]?
Its value is 1.02 fold.

And the “binding affinity fold change relative to RBD WT” value (A475V)?
The value was -1.1 fold.

What about the “binding affinity fold change relative to RBD WT” value (N501Y [4]) of the same binder?
Its value is -2.69 fold.

What about the IC50 [5] of the same binder?
The IC50 was 0.97 nM.

B12: Nb90 (VHH)
VHH: HVQLVESGGGLVQAGGSLRLSCAVSGRTVSSYVMGWFRQAPGKEREFVAGIGRTGMTITADSVKGRFTISRDNAKNLVYLQMNSLKSEDTAVYWCAAGVRDFAPRIDSYDYWGQGTQVTVSS
Which IC50 [1] does the source give for B12 here?
Its IC50 is 4.03 nM.

B13: Nb21 point mutant R31D (VHH)
VHH: QVQLVESGGGLVQAGGSLRLSCAVSGLGAHDVGWFRRAPGKEREFVAAIGANGGNTNYLDSVKGRFTISRDNAKNTIYLQMNSLKPQDTAVYYCAARDIETAEYTYWGQGTQVTVSS
Does B13 bind [8]?
Result: no binding

Does B13 bind [9]?
Result: no binding

B14: Nb92 (VHH)
VHH: HVQLVESGGGLVQAGGSLRLSCAASGRTFSAYGMGWFRQAPGKEREFVAGIARSGSEYYGDSVKGRFTISRDNAKNTVYLQMASLKAEDTGVYYCAADPTILYHALSQRTQNYRYWGPGTQVTVSS
For B14, which IC50 [1] is on record?
The IC50 was 4.92 nM.

B15: Nb34 (VHH)
VHH: DVQLVESGGGLVQAGGSLRLSCAASGFTFSNYVMYWGRQAPGKGREWVSGIDSDGSDTAYASSVKGRFTISRDNAKNTLYLQMNNLKPEDTALYYCVKSKDPYGSPWTRSEFDDYWGQGTQVTVSS
Which results are given for B15?
EC50 (read off the curve) [10]: ~1 nM; EC50 (read off the curve) (N501Y [11]): ~7 nM; IC50 [1]: 0.47 nM; binding affinity fold change relative to RBD WT (N439K): 1.18 fold; binding affinity fold change relative to RBD WT (Y453F): 1.2 fold; binding affinity fold change relative to RBD WT (K417N): -1.96 fold; binding affinity fold change relative to RBD WT [3]: 1.07 fold; binding affinity fold change relative to RBD WT (A475V): -1 fold; binding affinity fold change relative to RBD WT (N501Y [4]): -5.79 fold; IC50 [5]: 0.63 nM

B16: Nb36 (VHH)
VHH: HVQLVESGGGLVQAGGSLTLTCAASGRTFSSETMDMGWFRQAPGKEREFVAADSWNDGSTYYADSVKGRFTISRDSAKNTLYLQMNSLKPEDTAVYYCAAETYSIYEKDDSWGYWGQGTQVTVSS
What does the source list for B16?
IC50 [1]: 1.04 nM; binding affinity fold change relative to RBD WT (N439K): 1.43 fold; binding affinity fold change relative to RBD WT (Y453F): 1.32 fold; binding affinity fold change relative to RBD WT (K417N): -2.94 fold; binding affinity fold change relative to RBD WT [3]: 1.29 fold; binding affinity fold change relative to RBD WT (A475V): -1.13 fold; binding affinity fold change relative to RBD WT (N501Y [4]): 1.35 fold; EC50 (read off the curve) [12]: ~3 nM; IC50 [5]: 1.7 nM

B17: Nb12 (VHH)
VHH: HVQLVESGGGLVQAGGSLRLTCAASGGTFSTSTMDMGWFRQAPGKEREFVAVDSWNDGRAYYADSVKGRFTISRDSAKTTLYLQMNSLKPEDTAVYYCAARTERGVYDYWGRGTQVTVSS
With B17 as the binder, how does the IC50 [1] read?
Its IC50 is 539 nM.

B18: Nb91 (VHH)
VHH: HVQLVESGGGLVQPGGSLRLSCAASGLTLNDYAIGWFRQAPGKEREGVSCISSSDGTTYYADSVKGRFTISRDNAKNTVYLQMNSLKPEDTAVYYCATDIAPFYCSWPLRTRLVEYWGQGTQVTVSS
Which IC50 [1] does the source give for B18 here?
Its IC50 is 1.28 nM.

B19: Nb97 (VHH)
VHH: HVQLVESGGGLVQAGGSLRLSCAAPGRTFSTSAMGWFRQAPGKEREFVAAIDWSNTNIHYADTVKGRFTISTDTAKNTVYLQMNNLKPEDTAVYYCAQGGWGLTQPISVDYWGKGTQVTVSS
B19 was tested. Which IC50 [1] did it give?
Its IC50 is 0.32 nM.

B20: Nb107 (VHH)
VHH: HVQLVESGGGLVQAGGSLRLSCAASGRAIGIHRMAWFRQAPGKERAFVAAIQWTGDMPTYADSLKGRFTISADNAKNTVSLQMTSLKPDDTAVYYCAARSATTALYDYWGQGTQVTVSS
Which IC50 [1] does the source give for B20 here?
Its IC50 is 0.76 nM.

B21: Nb94 (VHH)
VHH: QVQLVESGGGLVQAGGSLRLSCTASGGTFRSFTMAWFRQAPGKEREFVATLSWTGVGTYYADSVKGRFTISRDIAKNTVYLEMNSLIPEDTAVYYCAASPYTYSLLSRTGDYGYWGQGTQVTVSS
How did the IC50 [1] turn out when B21 was run?
The IC50 was 0.5 nM.
